# Laboratory results reported in patent publication US8889130B2, “Treatment of osteoarthritis and pain” (Abbvie Inc., priority 2011, dated 2014).
# B1: mIL-1α/βDVD-Ig: mouse anti-mouse DVD-Ig, V(anti-mIL-1β 10G11)-linker-V(anti-mIL-1α 9H10)-murine constant region (Cγ2a and Cκ) (antibody)
# heavy: EVQLQQSGPELVKPGTSVKMSCKTSGYTFTSYVMHWVKQKPGQGLEWIGYIIPYNDNTKYNEKFKGKATLTSDKSSSTAYMELSSLTSEDSAVYYCARRNEYYGSSFFDYWGQGTTLTVSSAKTTAPSVYPLAPQVILKESGPGILQPSQTLSLTCSFSGFSLSTYGTAVNWIRQPSGKGLEWLAQIGSDDRKLYNPFLKSRITLSEDTSNSQVFLKITSVDTEDSATYYCANGVMEYWGLGTSVTVSSAKTTAPSVYPLAPVCGDTTGSSVTLGCLVKGYFPEPVTLTWNSGSLSSGVHTFPAVLQSDLYTLSSSVTVTSSTWPSQSITCNVAHPASSTKVDKKIEPRGPTIKPCPPCKCPAPNLLGGPSVFIFPPKIKDVLMISLSPIVTCVVVDVSEDDPDVQISWFVNNVEVHTAQTQTHREDYNSTLRVVSALPIQHQDWMSGKEFKCKVNNKDLPAPIERTISKPKGSVRAPQVYVLPPPEEEMTKKQVTLTCMVTDFMPEDIYVEWTNNGKTELNYKNTEPVLDSDGSYFMYSKLRVEKKNWVERNSYSCSVVHEGLHNHHTTKSFSRTPGK
# light: DIQMTQSPASLSASVGETVTITCRGSGILHNYLVWYQQKQGKSPQLLVYSAKILADGVPSRFSGSGSGTQYSLKINSLQPEDFGSYYCQHFWSTPFTFGSGTKLEIKRADAAPTVSIFPPSIVMTQTPKFLLVSAGDRVTITCKASQSVNHDVAWYQQMPGQSPKLLIYFASNRYTGVPDRFTGSGYGTDFTFTISTVQAEDLAVYFCQQDYSSPYTFGGGTKLEIKRADAAPTVSIFPPSSEQLTSGGASVVCFLNNFYPKDINVKWKIDGSERQNGVLNSWTDQDSKDSTYSMSSTLTLTKDEYERHNSYTCEATHKTSTSPIVKSFNRNEC
# Key:
# [1] = test system: zymosan-induced IL-6 production; test: Zymosan-induced IL-6 production in joint instability model study; type: in vivo, mouse; conditions: day 21 of JIM; 50 mg/kg zymosan ip, serum 4 hours later; mAbs 6 mg/kg each; DVD-Ig 6 or 12 mg/kg
# Protocol: As a pharmacodynamic readout to determine if anti-IL-1α and anti-IL-1β monoclonal antibodies as well as mIL-1α/β DVD-Ig binding protein were functional and capable of neutralizing IL-1α and IL-1β in vivo, zymosan-induced (IL-1α and IL-1β dependent) production of interleukin 6 (IL-6) was measured in a joint instability model study of OA.
# Briefly, on day 21 in the model, zymosan was suspended in PBS vehicle and placed in boiling water for half an hour, then allowed to cool before using. The mice were then injected ip with 50 mg/kg zymosan in suspension (mixed well before injection) in 0.5 ml PBS. The mice were then bled 4 hours after zymosan injection. Serum was collected for IL-6 measurements.
# Male SV129 mice = test: Destabilization of medial meniscus (DMM) model of osteoarthritis, cartilage degeneration (Chambers scores); type: in vivo, mouse; conditions: for mean sum Chambers scores and mean maximum Chambers scores (cartilage degeneration): Example 3.3.6 (FIG. 7)
# Excerpt: (§1) Male SV129 mice weighing approximately 30 grams, housed 5/cage, were anesthetized on Day 0 with ketamine/xylazine cocktail, administered intraperitoneally (ip), and then the medial collateral ligament was exposed by blunt dissection, and transected to reflect the meniscus toward the femur. The joint space was closed with 8-0 vicryl suture. The skin was closed with wound glue. For sham surgeries, a vertical skin incision was made over the medial aspect of the knee and the joint capsule was opened. The capsule was closed with 8-0 vicryl suture and the skin was closed with wound glue. Groups of animals were then treated with intraperitoneal (ip) injections of antibody or vehicle according to the study design table below. Two sex-matched, age-matched, and strain-matched naïve mice were also included in the study. Animals were euthanized after 8 weeks of treatment, and knee joints were harvested in 10% neutral buffered formalin.
# Formalin-fixed samples were decalcified, and specimens were sectioned in the frontal plane into 15 step sections each. Each section was approximately 6 μm thick, and step sections were separated by 70 μm. All slides were stained with toluidine blue (T. Blue). Slides were assessed according to the Chambers method (Chambers et al. (2001) Arthritis Rheum 44:1455-65) for cartilage degeneration (see below) by a board-certified veterinary pathologist. Each of the four cartilage surfaces, the medial femoral condyle (MFC), the medial tibial plateau (MTP), the lateral femoral condyle (LFC), and the lateral tibial plateau (LTP), was scored from 0-6 according to the scale in the table below.
# as §1, with “8-0 vicryl suture, and the” for “8-0 vicryl suture and the”, “injections of anti-mIL-1α monoclonal antibody, anti-mIL-1β (alone or in combination), mIL-1α/βDVD-Ig binding protein, or vehicle” for “injections of antibody or vehicle”, “design table below (Table 24). Animals were” for “design table below. Two sex-matched, age-matched, and strain-matched naïve mice were also included in the study. Animals were”, “weeks of treatment and knee” for “weeks of treatment, and knee”
# Male SV129 mice weighing approximately 30 grams had the medial collateral ligament exposed by blunt dissection, and transected to reflect the meniscus toward the femur. The joint space was closed with 8-0 vicryl suture. The skin was closed with wound glue. For sham surgeries, a vertical skin incision was made over the medial aspect of the knee and the joint capsule was opened. The capsule was closed with 8-0 vicryl suture, and the skin was closed with wound glue. Groups of animals were then treated per os (po) or via intraperitoneal (ip) injections of vehicle or treatments according to the study design table below. Three sex-matched, age-matched, and strain-matched naïve mice were also included in the study. Animals were euthanized after 4 weeks of treatment, and knee joints were harvested in 10% neutral buffered formalin.
# male Swiss Webster mice = test: Joint instability model (JIM) of osteoarthritis, cartilage degeneration histology; type: in vivo, mouse
# Protocol: The design of study of the in vivo activity of a mIL-1α/β DVD-Ig molecule in the joint instability model (JIM) of osteoarthritis in mice is shown in Table 19. All groups contained 25 mice (n=25), weighing approximately 30 grams (BW=30 g). The study was terminated after 21 days. Two and a half month old, male Swiss Webster mice (25/group/time point), housed 5/cage, were anesthetized with isoflurane anesthesia. Anterior cruciate ligament (ACL) trauma was administered on the right and left knees on day 0 in an attempt to induce OA lesions. Intraperitoneal (ip) treatments with IL-1 inhibitory antibodies IL-1α (9H10) and IL-1β (10G11), alone and in combination, were initiated the day of ACL trauma and continued every 4th day (q4d) for 20 days. The vehicle for the non-treatment control was PBS. Right and left knees were harvested on day 21, and histopathologic alterations were scored and characterized. Data were analyzed using only joints that had proliferative responses indicative of successful instability induction. The proliferative response/instability was scored 0-3, and only unstable joints (scores of 1, 2, or 3) were used in the final analysis. Medial and lateral femoral and tibial cartilage degeneration was scored for severity of cartilage degeneration on a scale 0-5. Four days after the last antibody dose, blood was drawn from all animals from each group for serum harvest. Body weights were recorded weekly. […]
# Following 2-3 days in a decalcifying fixative (Surgipath Decalifier, Surgipath Medical Ind., Inc., Richmond Va.), both knee joints were trimmed of extraneous tissue, embedded in the frontal plane and sectioned. […] Slides were examined by a board-certified veterinary pathologist blinded to study group designation, and were scored according to the method below. […]
# Medial and lateral femoral and tibial cartilage degeneration were scored for severity of cartilage degeneration using the following system: Depth/extent of chondrocyte and proteoglycan loss with fibrillation: […]
# The design of this study was similar to that described above in Example 3.3.1. […] Body weights were recorded weekly. […]
# male DBA-1 mice = test: Collagen-induced arthritis mouse model (rheumatoid arthritis); type: in vivo; conditions: therapeutic mode; 1-3 mg/kg intraperitoneally every other day after disease onset
# Protocol: The therapeutic effects of anti-IL-1α, anti-IL-1β, combined anti-IL-1α/anti-IL-1β, and murine IL-1α/β DVD4-Ig, were evaluated in a collagen-induced arthritis mouse model well known in the art. Briefly, male DBA-1 mice were immunized with bovine type II collagen in CFA at the base of the tail. The mice were boosted with Zymosan intraperitoneally (i.p) at day 21. After disease onset at day 24-27, mice were selected and divided into separate groups of 10 mice each. […] To neutralize IL-1, mice were injected every other day with 1-3 mg/kg of anti-IL-1α mAb, anti-IL-1βmAb, combination of anti-IL-1α and anti-IL-1β mAbs, or murine IL-1α/β DVD4-Ig intraperitoneally. Mice were carefully examined three times a week for the visual appearance of arthritis in peripheral joints, and scores for disease activity determined.
molecule,measurement,setting,value
B1,zymosan-induced IL-6 production,[1],significantly neutralized zymosan-induced IL-6 production
same,cartilage degeneration (total sum score),"Male SV129 mice; Example 3.3.5 (FIG. 6), 8 weeks of treatment ip, 6 mg/kg",significantly reduced cartilage degeneration
same,mean sum Chambers scores and mean maximum Chambers scores (cartilage degeneration),"Male SV129 mice; 8 weeks, DVD-Ig at 1.5 mg/kg (excepted from the significant reduction)",except for IL-1α/β DVD at 1.5 mg/kg
same,mean sum Chambers scores and mean maximum Chambers scores (cartilage degeneration),"Male SV129 mice; 8 weeks, DVD-Ig at 3 and 6 mg/kg",significantly reduced
same,dose effect for mean sum Chambers scores,"Male SV129 mice; Example 3.3.6, 8 weeks, DVD-Ig 1.5, 3, 6 mg/kg",statistically significant dose effect
same,cartilage degeneration,male Swiss Webster mice; 3 mg/kg DVD-Ig binding protein,had not effect on cartilage degeneration
same,"progression of osteoarthritis (cartilage degeneration scores, histopathological parameters)","male Swiss Webster mice; Example 3.3.2 (FIG. 3), DVD-Ig 6 or 12 mg/kg ip three times weekly, mAbs 6 mg/kg each Q4D, day 21",significantly inhibited the progression of osteoarthritis
same,reduction in mean arthritis score compared to control group,male DBA-1 mice,47%
